Consider four molecules from doi:10.1101/2024.03.27.586411 (2024).

Experiment [1] has as its target human APN ectodomain, Fc fusion (human) (UniProt P15144). As to the kind of experiment: BLI; RBD to hAPN-Fc, series from 5 uM two-fold down to 39 nM; apparent KD; Octet Red, 30 C, 10 x Kinetics Buffer; 1:1 binding model; who was immobilised is not told for this series. On the technique in general: In BLI a coated tip is dipped into the sample, and binding shifts an interference pattern.

Experiment [2] concerns the target PDCoV S_(SD2018) ectodomain trimer (Porcine deltacoronavirus (PDCoV), isolate SD2018/300). As to the kind of experiment: cryo-EM structure; 1.5 uM PDCoV S SD2018/300 with 4.5 uM PD41 Fab, 1 hour at 4 C; 3D classification into four classes, local refinement of the RBD:PD41 region.
The target of experiment [3] is T1, PDCoV_(IL121_2014) receptor-binding domain (Porcine deltacoronavirus (PDCoV), …).
T1 chain: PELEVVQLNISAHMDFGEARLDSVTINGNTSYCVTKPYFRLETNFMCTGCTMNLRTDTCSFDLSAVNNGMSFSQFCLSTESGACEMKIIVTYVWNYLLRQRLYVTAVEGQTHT
Briefly: BLI.

The target in experiment [4] is T1, PDCoV_(IL121_2014) receptor-binding …. As to the kind of experiment: BLI.

Values joined by “and” are separate entries in the source; they are usually repeats but may differ in a detail not shown here. Identical values can stand only once.

human APN ectodomain, Fc fusion (human), sequence (P15144 66-967): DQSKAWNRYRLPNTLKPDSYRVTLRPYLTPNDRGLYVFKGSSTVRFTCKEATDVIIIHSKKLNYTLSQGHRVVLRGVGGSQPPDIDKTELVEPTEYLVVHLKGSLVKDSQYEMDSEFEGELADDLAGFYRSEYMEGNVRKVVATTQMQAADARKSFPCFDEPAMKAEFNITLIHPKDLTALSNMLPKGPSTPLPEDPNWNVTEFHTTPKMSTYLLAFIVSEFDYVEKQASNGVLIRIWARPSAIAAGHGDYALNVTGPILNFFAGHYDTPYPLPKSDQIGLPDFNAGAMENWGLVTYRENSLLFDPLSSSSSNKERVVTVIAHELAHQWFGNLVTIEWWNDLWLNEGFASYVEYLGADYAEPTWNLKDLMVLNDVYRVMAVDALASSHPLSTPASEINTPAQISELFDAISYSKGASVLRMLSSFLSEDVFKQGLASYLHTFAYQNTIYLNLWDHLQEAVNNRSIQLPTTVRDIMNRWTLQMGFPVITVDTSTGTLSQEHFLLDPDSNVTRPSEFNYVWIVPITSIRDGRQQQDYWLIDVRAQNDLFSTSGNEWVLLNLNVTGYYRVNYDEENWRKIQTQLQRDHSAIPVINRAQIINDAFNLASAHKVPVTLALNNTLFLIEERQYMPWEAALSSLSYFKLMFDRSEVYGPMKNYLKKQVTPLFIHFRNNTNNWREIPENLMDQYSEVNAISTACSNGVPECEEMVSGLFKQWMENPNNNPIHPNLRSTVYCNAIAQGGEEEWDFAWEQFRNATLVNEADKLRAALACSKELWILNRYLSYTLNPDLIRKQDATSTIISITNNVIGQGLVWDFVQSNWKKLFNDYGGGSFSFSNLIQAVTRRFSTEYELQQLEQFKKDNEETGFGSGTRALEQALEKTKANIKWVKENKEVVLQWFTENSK

For the molecule “PDCoV SD2018/300 receptor-binding domain (domain or fragment)”, the fold greater affinity than RBD (IL121 2014) in experiment [1] turned out to be 5 fold.

Regarding “PDCoV S_(SD2018) ectodomain trimer (natural protein)”, the stoichiometry N (commonly the number of molecules, sites or subunits per partner or assembly) in experiment [2] stood at 3.

B1: PD41 Fab fragment (Fab, V domains shown)
VH: HSQLQESGPGLVKPSQTLSLTCTVSGGSISSAGYYWNWIRQHPGKGLEWIGYIYYSGNTYYNPSLKSRVTISVDTSKSQFSLKLNSVTAADTAVYYCARKIVNWFDPWGQGTLVTVSS
VL: QSALTQPASVSGSPGQSITISCTGTSSDVGGYNYVSWYQQHPGKAPKLMIYDVSERPSGVSNRFSGSKSGNTASLTISGLQAEDEADYFCCSYAGYTTYVVFGGGTQLTVL
With B1, the koff (as a rule, a measure of how fast the partners let go of each other) in experiment [3] was 0.00177 s⁻¹ and 0.002 s⁻¹. The Kd (commonly the constant that tells how readily two partners part at equilibrium) in experiment [4] is 22.6 nM and 37.2 nM.

B2: PD33 Fab fragment (Fab, V domains shown)
VH: EVQLVESGGGLVQPGGSLRLSCAASGFTFSHYTMNWVRQAPGRGLEWVSSITTSSNFIYYADSVKGRFTISRDNTKNSLYLQMNSLSAEDTAVYFCARGGWELSYFDFWGQGTLVTVSS
VL: DIVMTQSPLSLPVTLGQPASISCRSSQSLVYSDGNTFLNWFQQRPGQSPRRLIYKVSNRDSGVPDRFSGSGSGTDFTLRISRVEAEDVGFYYCMQGTHWPPTFGPGTKVEIK
In the case of B2, the koff in experiment [3] was 0.000586 s⁻¹ and 0.000542 s⁻¹. This molecule came in with a Kd in experiment [4] of 4.36 nM.
